# Results published in patent US20250042969A1, “ANTIGEN DISCOVERY FOR T CELL RECEPTORS ISOLATED FROM PATIENT TUMORS RECOGNIZING WILD-TYPE ANTIGENS AND POTENT PEPTIDE MIMOTOPES” (The Board of Trustees of the Leland Stanford Junior …, priority 2017, published 2025).
# Assays:
# [1] = system: peptide-HLA-A*02:01 yeast-display library; assay: Selection of the peptide-HLA-A*02:01 yeast-display library by multimerized TCR with deep sequencing; assay type: binding, human; settings: for cross-reactivity (breadth of tolerated amino acids per peptide position): round 3, accounting for peptide enrichment
# [2] = biological target: T1, MMDFFNAQM-HLA-A*02:01 (Homo sapiens, UniProt P04439+P26368, D140Y/D185E/D98H/E176V/E277Q/G131W/G231S/I119V/I121R/I166T/I218V/N151K/N90K/P208A/P217A/Q86G/Q94H/R138H/R169H); assay: Surface plasmon resonance of TCR binding to immobilized […]-HLA-A*02:01; settings: BIAcore T100, 25° C., equilibrium data, 1:1 binding model
# T1 construct: HLA-A*02:01 (1-275); BirA biotinylation site (implied by BirA biotinylation); made in house
# Method: Inclusion bodies containing the separate proteins were dissolved in 8 M urea, 40 mM Tris-HCl pH 8.0, 10 mM EDTA, and 10 mM DTT. […] After 72 hours at 4° C., the protein was dialyzed in 10 L of 10 mM Tris-HCl and purified via weak ion exchange using a DEAE cellulose column. The protein elution was purified using size exclusion chromatography on a Superdex 200 column and ion-exchange chromatography on a 5/50 Mono Q column (GE Healthcare). Protein was biotinylated overnight with birA ligase, 100 μM biotin, 40 mM Bicine pH 8.3, 10 mM ATP, and 10 mM Magnesium Acetate at 4° C. after buffer-exchange to 1×HBS pH 7.2 in a 30 kDa filter (Millipore) before being run on a size exclusion Superdex 200 column.
# A different flow cell was immobilized with non-relevant peptide-HLA-A2 to serve as blank control. […] Injections of TCR were stopped after 60 s to allow sufficient time for SPR signals to reach plateau. The dissociation constant (KD) was obtained by fitting equilibrium data with a 1:1 binding model using BIAcore evaluation software.
Molecule,enrichment of peptides / HLA-linked epitope tag from the library ([1]; HLA-A*02:01 library),cross-reactivity (breadth of tolerated amino acids per peptide position) [1],"affinity (dissociation constant, KD) [2]","TCR tetramer staining of selected library yeast ([1]; 400 nM TCR tetramer, over rounds of selection)","unique peptides selected at round 3 ([1]; HLA-A*02:01 library, all four peptide lengths, deep sequencing)"
"TCR 2A: TIL TCR of Patient A, TRAV19/TRBV10-1; alpha chain SEQ ID NO: 258, beta chain SEQ ID NO: 259 (protein) alpha: QKVTQAQTEISVVEKEDVTLDCVYETRDTTYYLFWYKQPPSGELVFLIRRNSFDEQNEISGRYSWNFQKSTSSFNFTITASQVVDSAVYFCALSEARGGATNKLIFGTGTLLAVQPNIQNPDPAVYQLRDSKSSDKSVCLFTDFDSQTNVSQSKDSDVYITDKCVLDMRSMDFKSNSAVAWSNKSDFACANAFNNSIIPEDTFFPSPESS beta: EITQSPRHKITETGRQVTLACHQTWNHNNMFWYRQDLGHGLRLIHYSYGVQDTNKGEVSDGYSVSRSNTEDLPLTLESAASSQTSVYFCASSRDTVNTEAFFGQGTRLTVVEDLKNVFPPEVAVFEPSEAEISHTQKATLVCLATGFYPDHVELSWWVNGKEVHSGVCTDPQPLKEQPALNDSRYALSSRLRVSATFWQNPRNHFRCQVQFYGLSENDEWTQDRAKPVTQIVSAEAWGRAD",enriched peptides from the library,more cross-reactive,,,
"TCR 3B: TIL TCR of Patient B, TRAV19/TRBV10-1; alpha chain SEQ ID NO: 258, beta chain SEQ ID NO: 260 (protein) alpha: QKVTQAQTEISVVEKEDVTLDCVYETRDTTYYLFWYKQPPSGELVFLIRRNSFDEQNEISGRYSWNFQKSTSSFNFTITASQVVDSAVYFCALSEARGGATNKLIFGTGTLLAVQPNIQNPDPAVYQLRDSKSSDKSVCLFTDFDSQTNVSQSKDSDVYITDKCVLDMRSMDFKSNSAVAWSNKSDFACANAFNNSIIPEDTFFPSPESS beta: EITQSPRHKITETGRQVTLACHQTWNHNNMFWYRQDLGHGLRLIHYSYGVQDTNKGEVSDGYSVSRSNTEDLPLTLESAASSQTSVYFCASSRDFVSNEQYFGPGTRLTVTEDLKNVFPPEVAVFEPSEAEISHTQKATLVCLATGFYPDHVELSWWVNGKEVHSGVCTDPQPLKEQPALNDSRYALSSRLRVSATFWQNPRNHFRCQVQFYGLSENDEWTQDRAKPVTQIVSAEAWGRAD",enriched peptides from the library,relatively specific,could not be determined,tetramer stained yeast gradually increased across the rounds of selection,66
